Literature values in paper PMC7168109.
pKd: −log10 of the molar value.

Biological target: T1, PTK7 (tyrosine protein kinase 7, CCK4) on CCRF-CEM or Jurkat cells (UniProt Q13308)
T1 sequence: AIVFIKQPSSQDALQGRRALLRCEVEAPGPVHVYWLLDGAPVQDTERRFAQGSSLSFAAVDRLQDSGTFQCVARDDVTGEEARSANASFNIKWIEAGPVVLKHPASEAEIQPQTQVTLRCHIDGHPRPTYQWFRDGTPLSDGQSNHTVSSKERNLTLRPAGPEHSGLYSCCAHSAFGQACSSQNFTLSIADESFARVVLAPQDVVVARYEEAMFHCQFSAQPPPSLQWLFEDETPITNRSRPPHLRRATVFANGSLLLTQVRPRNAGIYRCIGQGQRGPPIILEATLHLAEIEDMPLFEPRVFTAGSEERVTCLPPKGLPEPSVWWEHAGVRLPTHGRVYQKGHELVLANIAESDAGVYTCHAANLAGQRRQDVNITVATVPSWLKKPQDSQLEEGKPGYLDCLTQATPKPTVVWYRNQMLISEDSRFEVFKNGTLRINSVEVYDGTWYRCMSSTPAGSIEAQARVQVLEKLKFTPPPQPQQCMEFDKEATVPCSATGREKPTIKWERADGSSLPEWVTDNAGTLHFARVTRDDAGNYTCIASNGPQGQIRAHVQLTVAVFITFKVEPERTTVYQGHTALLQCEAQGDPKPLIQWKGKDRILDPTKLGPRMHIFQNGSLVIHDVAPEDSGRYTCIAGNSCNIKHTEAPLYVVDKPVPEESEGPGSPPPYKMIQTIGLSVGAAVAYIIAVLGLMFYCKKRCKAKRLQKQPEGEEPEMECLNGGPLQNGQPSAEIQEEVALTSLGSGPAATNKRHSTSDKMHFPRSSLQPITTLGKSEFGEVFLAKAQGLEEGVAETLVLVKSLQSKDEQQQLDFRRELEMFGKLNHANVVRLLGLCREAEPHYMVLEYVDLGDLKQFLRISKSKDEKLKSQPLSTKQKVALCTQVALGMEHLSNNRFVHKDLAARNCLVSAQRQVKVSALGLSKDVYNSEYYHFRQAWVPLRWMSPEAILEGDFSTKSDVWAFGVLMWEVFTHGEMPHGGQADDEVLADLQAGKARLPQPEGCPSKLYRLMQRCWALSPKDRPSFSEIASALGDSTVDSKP
Experiment: cited, method not stated
Conditions: Flow cytometry on whole cells: 200 nM aptamer, 4 °C, 30 min in the dark, cells washed with PBS before incubation, three washes after; binding buffer and pH not …

Sgc8 (as cited)
pKd: 9.10
